Fewer inactive variants are shown than the library holds.
B1: TPR 5TU (parent)
chain: GGAUCUUCUCGAUCUAACAAAAAAGACAAAUCUGCCACAAAGCUUGAGAGCAUCUUCGGAUGCAGAGGCGGCAGCCUUCGGUGGCGCGAUAGCGCCAACGUUCUCAACUAUGACACGCAAAACGCGUGCUCCGUUGAAUGGAGUUUAUCAUG

Variants of: B1
Experiment: polymerase ribozyme fitness, log enrichment relative to wild type (log ratio); higher = more active; in vitro selection for triplet polymerase activity
How it was run: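 Each subunit of a heterodimeric triplet polymerase ribozyme was represented by a PCR-built, transcribed mutant library that underwent triplicate single-round in vitro selection with frozen incubation at −7 °C. Extended constructs were recovered by gel excision, streptavidin-bead capture and RT-PCR, and Illumina sequencing of input and output libraries kept genotypes with ≥10 input reads and ≥1 read per output. Fitness is the logarithm of genotype enrichment relative to wild-type enrichment, from inverse-variance-weighted replicate averages, with a logarithm base of 2.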

Variant | polymerase ribozyme fitness (log ratio)
GGAUCUUCUCGAUCUAACAAAAAAGACAAAUCUGCCACAACGCUUGAGAGCAUCUUCGGAUGCAGAGGCGGCAGCCUUCGGUGGCGCGAUAGCGCCAACGUUCUCAACUAUGACACGCAAAACGCGUGCUCCGUUGAAUGGAAUUUAUCAUG | -1.42
GGAUCUUCUCGAUCUAACAAAAAAGACAAAUCUGCCACAACGCUUGAGAGCAUCUUCGGAUGCAGAGGCGGCAGCCUUCGGUGGCGCGAUAGCGCCAACGUUCUCAACUAUGACACGCAAAACGCGUGCUCCGUUGAAUGGACUUUAUCAUG | -2.56
GGAUCUUCUCGAUCUAACAAAAAAGACAAAUCUGCCACAACGCUUGAGAGCAUCUUCGGAUGCAGAGGCGGCAGCCUUCGGUGGCGCGAUAGCGCUAACGUUCUCAUCUAUGACACGCAAAACGCGUGCUACAUUGAAUGGAGUUCAUCAUG | ≤ -4.2
GGAUCUUCUCGAUCUAACAAAAAAGACAAAUCUGCCACAACGCUUGAGAACAUCUUCGGAUGCAGAGGCGGCAGCCUUCGGUGGCACGAUAGCGCCAGCGUUCUCAACUAUGACACGCAAAACGCGUGCUCCGUUGAAUGGAGUUUAUCAUG | -3.62
GGAUCUUCUCGAUCUAACAAAAAAGACAAAUCUGCCACAAGGCUUGAGAGCAUCUUAGAAUGCAGAGUCGGCAGCCUUCGGUGGCGCGAUAGCGCCAACGUUCUCAACUAUGACACGCAAAACGCGUGCUCCGUUGAAUGGAGUUUAUCAUG | ≤ -4.2
GGAUCUUCUCGAUCUAACAAAAAAGACAAAUCUGCCACAACGCUUGAGAGCAUCUUCGGAUGCAGAGGCGGCAGCCUUCGGUGGCGCGAUAGUGCCAACGUUCUCAACUAUGACACGCAAAAUGCGUGCUCCGUUGAAUGGAGUUUAUCAUG | -1.59
GGAUCUUCUCGAUCUAACAAAAAAGACAAAUCUGCCACAAGGCUUGAGAGCAUCUUCGGAUGCAGAGGCGGCAGUCUUCGGUGGCGCGAUAGGGCCAACGUUCUCAACUAUGACACGCAAAACGCGUGCUCCGUUGAAUGGAGUUUAUCAUG | -2.6
GGAUCUUCUCGAUCUAACAAAAAAGACAAAUCUGCCACAACGCUUGAGAGCAUCUACGGAUGCAGAGGCGGCAGCCUUCGGUGGCGUGAUAGCGCCAACGUUCUCAACUAUGACACGCAAAACGCGUGCUCCGUGGAAUGGAGUUUAUCAUG | ≤ -4.2
GGAUCUUCUCGAUCUAACAAAAAAGACAAAUCUGCCACAACGCUUGAGAGCAUCAUCGGAUGCAGAGGCGGCAGCCUUCGGUGGCGCGAUAGAGCCAACGUUCUCAACUAUGACACGCAAAACGCGUGCUCCGUUGAAUGGAGUUUAUCAUG | -3.32
GGAUCUUCUCGAUCUAACAAAAAAGACAAAUCUGCCACAACGCUUGAGAGCAUCUUCGGAUGCAGAGGCGGCAGCCUUCGGUGGCGCGAUAGCGCCAACGUUCUCAACUAUGACACGCAAAACGCGUGCUCAGUUGAAUGGAGUUUAUCAUG | -2.55
GGAUCUUCUCGAUCUAACAAAAAAGACAAAUCUGCCACAACGCUUGAGAGCAUCUUCGGAUGCAGAGGCGGCAGCCUUCGGUGGCGCGAUAGCGCCAACGUUCUCAACUAUGACACGCAAAACGCGGGCUCCGUUUAAUGUAGUUUAUCAUG | ≤ -4.2
GGAUCUUCUCGAUCUAACAAAAAAGACAAAUCUGCCACAAGGCUUGAGAGCAUCUUCGGAUGCAGAGGCGGCAGCUUUCGGUGUAGCGAUAGCGCCUACAUUCUCAACUAUGACACGCAAAACGCGUGCUCCGUUGAAUUGAGUUUAUCAUG | ≤ -4.2
GGAUCUUCUCGAUCUAACAAAAAAGACAAAUCUGCCACAACGCUUGAGAGCAACUUCGGAUGCAGAGGCGGCAGCCUUCGGUGGCGCGAUAGCGCCAACGUUCUCAACUAUGACACGCAAAACGCGUGCUCCGUAGAAUGGAGUUUAUCAUG | -1.07
GGAUCUUCUCGAUCUAACAAAAAAGACAAAUCUGCCACAACGCUUGAGAGCAUCUUCGGAUGCAGACGCGGCAGCCUUCGGUAGCGCGAUAGCGGCAACGUUCUCAACUAUGACACGCAAAACGCGUGCUCCGUUGAAUGGAAUUUAUCAUG | ≤ -4.2
GGAUCUUCUCGAUCUAACAAAAAAGACAAAUCUGCCACAACGCUUGAGAGCAUCUUCGGAUGCAGAGGCGGCAGCCUUCGGUUGCGCGAUAGCGCCAACGUUCUCAACUAUGACACGCAAAACGCGUGCUCCGUUGAAUGGAGUUUAUCAUG | -0.922
GGAUCUUCUCGAUCUAACAAAAAAGACAAAUCUGCCACAACGCUUGAGAGCAUCUUCGGAUGCAGAGGCGGCAGCCUUCGGUGGCGCGAUAGCGCCAACGUUCUCAACUAUGACACGCAAAACGCGUGCUCCGUUGAAUGGAGCUUUUCAUG | -0.619
GGAUCUUCUCGAUCUAACAAAAAAGACAAAUCUGCCACAACGCUUGAGAGCAUCUUCGGAUGCAGAGGCGGCAGCCUUCGGUGGCGCGAUAGCGCCAACGUACUCAACUAUGACACGCAAAACGCGUGCUCCGUUGAAUGGAGUUUAUCAUG | -1.07
GGAUCUUCUCGAUCUAACAAAAAAGACAAAUCUGCCACAAGGCUUGAGAGCAUCUUCGGAUGCAGAGGCGGCAGCCUUCGGUGGCGAGAUAGCGCCAACGUUCUCAACUAUGACACGCAAGAUGCGUGCUCCGUUGAAUAGAGUUCAUGAUG | ≤ -4.2
GGAUCUUCUCGAUCUAACAAAAAAGACAAAUCUGCCACAACGCUUGAGAGCAUCUUCGGAUGCAGAGGCGGCAGCCUUCGGUGGCUCGAUAGCGCCAACGUUCUCAACUAUGACACGCAAAAUGCGUGCUCCGUUGAAUGGAGUUUAUCAUG | -2.13

From the RNAGym collection of RNA variant scans (doi:10.1073/pnas.2313332121)
